The values below are quoted from earlier work in patent US20020019334A1, “Nutritional intervention composition for enhancing and extending satiety” (priority 2000, published 2002).

The conditions of this data set: injection, humans.

B1: Cholecystokinin (peptide, UniProt P06307 21-115, looked up)
Cholecystokinin: QPVPPADPAGSGLQRAEEAPRRQLRVSQRTDGESRAHLGALLARYIQQARKAPSGRMSIVKNLQNLDPSHRISDRDYMGWMDFGRRSAEEYEYPS
modifications: Cholecystokinin
As for B1, the “decrease of food intake” value was 16%.
